Results taken from US20110150894A1.

Biological target: activated β1 integrin on bovine capillary endothelial (CE) cells (bovine) (UniProt P53712)
Assay: cell-based or functional assay

Sequence of activated β1 integrin on bovine capillary endothelial (CE) cells (bovine) (P53712 21-798): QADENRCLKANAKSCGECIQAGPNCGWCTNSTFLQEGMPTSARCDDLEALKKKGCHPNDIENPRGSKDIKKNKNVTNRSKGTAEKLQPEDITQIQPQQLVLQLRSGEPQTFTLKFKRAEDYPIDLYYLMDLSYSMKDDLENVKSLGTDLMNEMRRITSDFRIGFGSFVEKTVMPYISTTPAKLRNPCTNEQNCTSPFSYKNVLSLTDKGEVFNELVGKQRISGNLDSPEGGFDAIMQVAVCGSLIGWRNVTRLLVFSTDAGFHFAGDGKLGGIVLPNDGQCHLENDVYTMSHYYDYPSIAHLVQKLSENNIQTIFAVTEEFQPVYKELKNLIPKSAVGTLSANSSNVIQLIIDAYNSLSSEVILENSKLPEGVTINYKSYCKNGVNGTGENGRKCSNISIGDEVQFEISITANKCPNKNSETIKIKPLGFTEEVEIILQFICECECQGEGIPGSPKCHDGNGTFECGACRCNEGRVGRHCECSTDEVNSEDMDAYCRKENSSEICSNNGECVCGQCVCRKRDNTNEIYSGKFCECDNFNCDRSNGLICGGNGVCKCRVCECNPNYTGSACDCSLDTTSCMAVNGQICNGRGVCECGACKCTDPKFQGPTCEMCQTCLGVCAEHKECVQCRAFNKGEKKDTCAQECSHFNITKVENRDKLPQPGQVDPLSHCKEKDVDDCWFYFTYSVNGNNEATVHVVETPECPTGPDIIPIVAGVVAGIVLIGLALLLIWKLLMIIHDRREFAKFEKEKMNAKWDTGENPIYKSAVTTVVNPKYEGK

“function-blocking anti-β1 integrin (P5D2) antibody” gave a decrease in strain-induced cell realignment of 70%.
